Test results published in US20210024639A1 (AGOMAB THERAPEUTICS, published 2021).

Assays:
[1] = molecular target: T1, human MET-Fc chimeric protein (R&D Systems) (human, UniProt P08581 25-932); test: competition ELISA, hMET-Fc in solid phase, competitor 0.3 nM biotinylated hHGF
T1 construct: extracellular domain; bought (R&D Systems); also called hMET; not shown: Fc portion of human IgG1
In short: (§1)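 An ELISA format measured how well mAbs (0-120 nM) displaced N-terminus-biotinylated HGF from plate-bound receptor. Results are given as the concentration producing 50% competition and as IMAX, the saturating maximum percentage.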

[2] = molecular target: T2, native human MET on living human cells (human, UniProt P08581 25-1390); test: cell-based or functional assay
[3] = molecular target: T3, native mouse MET on living mouse cells (mouse, UniProt P16056 25-1379); test: cell-based or functional assay
[4] = molecular target: T3, native mouse MET on living mouse cells; test: flow cytometry, MLP29 cells
In short: (§2)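 Maximal binding (EMAX) comes from flow cytometric analysis of intact living cells labelled with chimeric anti-MET antibodies and a PE-coupled anti-human IgG1 secondary.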

[5] = molecular target: T2, native human MET on living human cells; test: flow cytometry, A549 cells
In short: as §2

[6] = molecular target: human MET ECD mutant J (mutations 6, 7) (human) (UniProt P08581); test: ELISA, MET ECD mutant in solid phase, mAb 0-50 nM
[7] = molecular target: human MET ECD mutant I (mutations 6, 7, 8) (human) (UniProt P08581); test: ELISA, MET ECD mutant in solid phase, mAb 0-50 nM
[8] = molecular target: T4, mouse MET-Fc chimeric protein (R&D Systems) (mouse, UniProt P16056 25-929, limits assumed); test: competition ELISA, mMET-Fc in solid phase, competitor 0.3 nM biotinylated mHGF
T4 construct: bought (R&D Systems); also called mMET; not shown: Fc
In short: as §1

[9] = molecular target: T2, native human MET on living human cells; test: cell-based or functional assay; remark: listed apart in the source
[10] = molecular target: T3, native mouse MET on living mouse cells; test: cell-based or functional assay; remark: listed apart in the source

B1: chimeric llama-human IgG1 mAb 71G3 (antibody, V domains shown)
VH: QVQLVESGGGLVQPGGSLRVSCAASGFTFSTYYMSWVRQAPGKGLEWVSDIRTDGGTYYADSVKGRFTMSRDNAKNTLYLQMNSLKPEDTALYYCARTRIFPSGYDYWGQGTQVTVSS
VL: QAVVTQEPSLSVSPGGTVTLTCGLSSGSVTTSNYPGWFQQTPGQAPRTLIYNTNSRHSGVPSRFSGSISGNKAALTIMGAQPEDEADYYCSLYPGSTTVFGGGTHLTVL
For B1, the “IMAX (maximum % competition)” value [1] was 63.2%, the “protection from staurosporine, viability EC50, MCF10A” value [2] was 5.04 nM and the “protection from staurosporine, viability EMAX, MCF10A” value [2] was 65.2%. The “protection from staurosporine, viability EC50, MLP29” value [3] was 4.85 nM, the “protection from staurosporine, viability EMAX, MLP29” value [3] was 62.3% and the “EMAX (% relative to control)” value [4] was 116%. The “EMAX (% relative to control)” value [5] was 117%, the % binding (EMAX) compared to WT MET [6] was 91.2% and the % binding (EMAX) compared to WT MET [7] was 100%. The “IMAX (maximum % competition)” value [8] was 62.9%, the “cell scattering score, HPAF-II, 0.001 nM” value [9] was 0 score 0-4 and the “cell scattering score, HPAF-II, 0.004 nM” value [9] was 0 score 0-4. For the same binder, the “cell scattering score, HPAF-II, 0.012 nM” value [9] was 1 score 0-4, the “cell scattering score, HPAF-II, 0.037 nM” value [9] was 2 score 0-4 and the “cell scattering score, HPAF-II, 0.111 nM” value [9] was 3 score 0-4. For the same binder, the “cell scattering score, HPAF-II, 0.333 nM” value [9] was 4 score 0-4, the “cell scattering score, HPAF-II, 1.000 nM” value [9] was 4 score 0-4 and the “cell scattering score, HPAF-II, 3.000 nM” value [9] was 4 score 0-4. The “cell scattering score, HPAF-II, 9.000 nM” value [9] was 4 score 0-4, the “cell scattering score, MLP29, 0.001 nM” value [10] was 0 score 0-4 and the “cell scattering score, MLP29, 0.004 nM” value [10] was 0 score 0-4. The “cell scattering score, MLP29, 0.012 nM” value [10] was 0 score 0-4, the “cell scattering score, MLP29, 0.037 nM” value [10] was 1 score 0-4 and the “cell scattering score, MLP29, 0.111 nM” value [10] was 2 score 0-4. The “cell scattering score, MLP29, 0.333 nM” value [10] was 4 score 0-4, the “cell scattering score, MLP29, 1.000 nM” value [10] was 4 score 0-4 and the “cell scattering score, MLP29, 3.000 nM” value [10] was 4 score 0-4. For the same binder, the “cell scattering score, MLP29, 9.000 nM” value [10] was 4 score 0-4.
